The target in the assay is human receptor for C5a (human) (UniProt P21730). In words: cell-based or functional assay.
Chain of UniProt P21730 (P21730 whole entry): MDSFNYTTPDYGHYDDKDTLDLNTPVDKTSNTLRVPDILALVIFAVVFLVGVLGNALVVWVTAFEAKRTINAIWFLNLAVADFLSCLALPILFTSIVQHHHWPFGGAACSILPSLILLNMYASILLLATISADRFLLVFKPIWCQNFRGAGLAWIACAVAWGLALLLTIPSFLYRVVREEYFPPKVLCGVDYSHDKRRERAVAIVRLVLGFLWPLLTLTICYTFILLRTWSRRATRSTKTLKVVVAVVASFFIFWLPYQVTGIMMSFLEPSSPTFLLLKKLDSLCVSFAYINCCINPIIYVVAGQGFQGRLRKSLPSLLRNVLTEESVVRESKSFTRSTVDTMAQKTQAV

With “mouse C5a (from UniProt P06684 679-755) (ligand)”, the half effective concentrations (EC50), chemotaxis (migration) of BA/F3/huC5aR cells was found to be 0.3 nM.

Take “recombinant human C5a (from UniProt P01031 678-751) (ligand)”: the half effective concentrations (EC50), chemotaxis (migration) of BA/F3/huC5aR cells amounted to 0.1 nM.

These data come from EP4620474A1.
